Experimental data published in patent US20080227698A1, “OLIGOPEPTIDES FOR TREATMENT OF OSTEOPOROSIS AND OTHER BONE DISEASES AND METHODS THEREOF” (Washington University, priority 2005, published 2008).

Assays:
LRP6 [1] = target: T1, LRP6 (Homo sapiens, UniProt O75581); assay: LRP6-mediated ^125I-DKK1 degradation in LRP6-transduced HT1080 cells; assay type: cell-based; set-up: plasmid pCS-Myc-hLRP6 containing the full-length human LRP6 cDNA; HA; expressed in transfected cells; host or cells: human HT1080 cells, stably transduced (pLNCX2 retroviral vector); details: 500 nM competitor, 4 hours at 37° C.
T1 sequence (O75581 20-1613): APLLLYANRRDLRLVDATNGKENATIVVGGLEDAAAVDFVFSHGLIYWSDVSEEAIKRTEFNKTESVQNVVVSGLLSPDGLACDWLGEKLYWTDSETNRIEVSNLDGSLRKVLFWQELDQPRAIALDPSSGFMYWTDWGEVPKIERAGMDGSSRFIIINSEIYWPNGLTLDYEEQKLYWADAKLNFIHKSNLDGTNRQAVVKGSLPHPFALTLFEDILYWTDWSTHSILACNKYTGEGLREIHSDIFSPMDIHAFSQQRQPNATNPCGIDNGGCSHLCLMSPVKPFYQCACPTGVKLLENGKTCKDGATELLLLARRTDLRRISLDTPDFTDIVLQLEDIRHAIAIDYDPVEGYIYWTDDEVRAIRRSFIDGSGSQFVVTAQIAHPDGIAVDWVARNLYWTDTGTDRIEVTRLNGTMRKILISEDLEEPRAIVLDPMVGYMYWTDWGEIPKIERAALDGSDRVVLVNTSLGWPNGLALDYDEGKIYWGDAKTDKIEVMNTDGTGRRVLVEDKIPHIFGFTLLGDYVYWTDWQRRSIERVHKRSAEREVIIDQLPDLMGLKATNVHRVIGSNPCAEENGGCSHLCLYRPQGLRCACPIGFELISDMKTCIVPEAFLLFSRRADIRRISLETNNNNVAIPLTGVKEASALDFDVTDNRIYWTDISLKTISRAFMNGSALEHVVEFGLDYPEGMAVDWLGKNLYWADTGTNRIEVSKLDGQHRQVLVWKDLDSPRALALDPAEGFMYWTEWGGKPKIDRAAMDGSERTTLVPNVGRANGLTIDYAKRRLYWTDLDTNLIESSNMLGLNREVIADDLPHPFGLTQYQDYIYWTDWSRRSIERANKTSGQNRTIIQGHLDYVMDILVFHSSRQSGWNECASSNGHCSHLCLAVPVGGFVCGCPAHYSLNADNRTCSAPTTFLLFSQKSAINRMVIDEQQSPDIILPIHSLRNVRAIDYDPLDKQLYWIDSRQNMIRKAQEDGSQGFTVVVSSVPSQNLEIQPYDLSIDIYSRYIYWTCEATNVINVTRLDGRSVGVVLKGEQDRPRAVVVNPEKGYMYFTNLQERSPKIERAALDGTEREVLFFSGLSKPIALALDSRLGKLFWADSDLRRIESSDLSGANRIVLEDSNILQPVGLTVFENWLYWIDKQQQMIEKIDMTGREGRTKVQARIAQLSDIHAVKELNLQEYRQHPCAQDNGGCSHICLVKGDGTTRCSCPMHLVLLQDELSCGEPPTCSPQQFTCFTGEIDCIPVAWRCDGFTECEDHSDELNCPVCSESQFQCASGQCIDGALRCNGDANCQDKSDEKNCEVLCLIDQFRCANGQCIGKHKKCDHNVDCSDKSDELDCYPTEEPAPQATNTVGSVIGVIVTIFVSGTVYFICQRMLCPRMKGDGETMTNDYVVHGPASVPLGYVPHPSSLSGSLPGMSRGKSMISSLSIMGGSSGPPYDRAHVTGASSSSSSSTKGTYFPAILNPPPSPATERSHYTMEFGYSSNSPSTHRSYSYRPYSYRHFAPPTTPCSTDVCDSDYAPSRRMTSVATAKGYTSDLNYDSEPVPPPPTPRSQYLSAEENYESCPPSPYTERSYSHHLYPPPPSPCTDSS
Protocol: Ligand degradation was performed using the methods as described (Li, Y., J. Biol. Chem. 275: 17187-17194, 2000). Briefly, 2×10^5 cells were seeded into 12-well dishes 1 day prior to assay. Pre-warmed assay buffer (minimal Eagle's medium containing 0.6% BSA with radioligand, 0.6 ml/well) was added to cell monolayers in the absence or the presence of unlabeled 500 nM RAP or 500 nM Mesd, followed by incubation for 4 hours at 37° C. Thereafter, the medium overlying the cell monolayers was removed and proteins were precipitated by addition of BSA to 10 mg/ml and trichloroacetic acid to 20%. […] After each time point, the plates were quickly placed on ice and the assay buffer was replaced with cold stop/strip solution. ^125I-anti-HA IgG that remained on the cell surface was stripped by incubation of cell monolayers with cold stop/strip solution for a total of 20 minutes (0.75 ml for 10 minutes, twice) and counted. Cell monolayers were then solubilized with low-SDS lysis buffer and counted. […] The fraction of internalized ^125I-anti-HA IgG after each time point was calculated and plotted.
RAP is a receptor antagonist for members of the LDLR family, and is able to inhibit the binding of most known ligands of the LDLR family members. […] Cell-surface-bound Myc-tagged DKK proteins were fixed and detected by immunofluorescence staining with anti-Myc antibody. […]

LRP6 [2] = target: T1, LRP6; assay: ^125I-Mesd binding to LRP6, competition by Mesd or oligopeptide (FIG. 10C); set-up: plasmid pCS-Myc-hLRP6 containing the full-length human LRP6 cDNA; HA; expressed in transfected cells; host or cells: human HT1080 cells, stably transduced (pLNCX2 retroviral vector); details: compared with LRP5 (up to about 10-fold)
Protocol: In order to investigate the binding of Mesd polypeptide and an Mesd oligopeptide to either LRP5 or LRP6, binding assays were performed using ^125I-Mesd or ^125I-DKK1 (FIG. 10).

[3] = tested on: TCF/LEF transcriptional activity; assay: TOP-FLASH luciferase reporter assay in HEK293 cells cotransfected with LRP6 and Mesd constructs; assay type: cell-based; details: luciferase 48 hours after transfection
Protocol: HEK293 cells were plated into six-well plates. For each well, […] of the TOP-[…] luciferase construct (Upstate Biotechnology) was cotransfected with 0.8 μg Mesd-expressing vector, 0.8 μg Mesd mutant-expressing vector, or empty vector. A β-galactosidase-expressing vector (Promega, Madison, Wis.) was included as an internal control for transfection efficiency. After 48 hours, cells were lysed and both luciferase and β-galactosidase activities were determined with enzyme assay kits (Promega). The luciferase activity was determined with a luminometer using the Dual Luciferase Assay system (Promega). Luciferase activity was normalized to the activity of the P-galactosidase.
Activation of canonical Wnt signaling leads to the stabilization of P-catenin and regulation of gene transcription through transcription regulators including lymphoid-enhancing factor (LEF)-1 and T-cell factors (TCF). The TOP-FLASH luciferase reporter contains TCF-binding sites and can be directly activated by the P-catenin/TCF complex (Korinek et al., 1997). LRP6 is cell surface receptor, and only the mature receptor can reach the cell surface and modulate Wnt signaling (Cong et al., 2004). Next examined was the effect of Mesd_C on Wnt signaling using the TOP-FLASH luciferase reporter assay in HEK293 cells. […] The luciferase activity was measured 48 hours after transfection. […]

Effect of excess unlabeled competitor on increased DKK1 degradation (LRP6 [1]): abolished | Reduction of binding of ^125I-Mesd to LRP6 (LRP6 [2]): even greater reduction
B1: Mesd: recombinant wild-type mouse Mesd, polyhistidine tail at the N-terminus, lacks the signal peptide, expressed in E. coli (protein)
chain: ADTPGEATPPPRKKKDIRDYNDADMARLLEQWEKDDDIEEGDLPEHKRPSAPIDFSKLDPGKPESILKMTKKGKTLMMFVTVSGNPTEKETEEITSLWQGSLFNANYDVQRFIVGSDRAIFMLRDGSYAWEIKDFLVSQDRCAEVTLEGQMYPGKGGGSKEKNKTKPEKAKKKEGDRKPRASKEDNRAGSRREDL
modifications: left off: small tags and cut ends
notes: recombinant wild-type mouse Mesd, polyhistidine tail at the N-terminus, lacks the signal peptide, expressed in E. coli
TCF/LEF transcriptional activity (TOP-FLASH) on coexpression [3]: significantly enhanced
